Values of other authors in PMC5176006.

Target: IscU (Escherichia coli) (UniProt P0ACD4)
Sequence of UniProt P0ACD4 (P0ACD4 whole entry): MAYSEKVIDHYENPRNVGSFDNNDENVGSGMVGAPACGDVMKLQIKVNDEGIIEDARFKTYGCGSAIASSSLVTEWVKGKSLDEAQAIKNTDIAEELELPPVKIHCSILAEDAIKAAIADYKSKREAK

IscS (from UniProt P0A6B7)
Kd: 1000 nM
